US10927157B2, “Helix-grafted proteins as inhibitors of disease-relevant protein-protein interactions” (priority 2014, dated 2021)

Assays:
5-helix [1] = target: T1, 5-helix (Human immunodeficiency virus type 1 group M subtype B, UniProt P04578, C598G/DEL583-596/DEL601-623/N624G); conditions: untagged ligand, E. coli cell lysate, Ni-NTA
Experimental: Lysate Ni-NTA Pulldown Assay: GLUE-Cpep was cloned into MCS1 of pETDuet-1 using restriction enzymes NcoI and NotI. The 5 helix with a C-terminal His6× tag was cloned into MCS2 of pETDuet-1 using the restriction enzymes NdeI and KpnI. Completed constructs were transformed into BL21s (DE3). Cells containing the co-expressed pair were inoculated and induced as described previously. Cells were spun down and resuspended in lysis buffer (100 mM NaCl, 20 mM Tris pH 7.4, 10 mM (NH4)2SO4), lysed by sonication, and spun down to remove cell debris. Cleared lysate was incubated with 200 μL Ni-NTA agarose resin for 1 hour. Ni-NTA agarose was washed with 8 mL lysis buffer and with 10 mM imidazole. Proteins were eluted with 500 μL lysis buffer containing 400 mM imidazole.

HIV-1 IIIB virus = test: In cellulo HIV-1 infection assay (CEM-GFP cells, flow cytometry); type: cell-based
Experimental: The ELMO grafts were tested as potential inhibitors of HIV-1 in cellulo. The validated assay uses a Lymphoblastoid CD4^+ T-cell line with stably integrated EGFP (CEM-GFP) under the control of the HIV-1 long terminal repeat (LTR) promoter. 293T cells are simultaneously transfected with HIV-1 IIIB virus. The infected cells and non-infected cells are mixed together along with the desired inhibitor. If infection succeeds the number of infected GFP^+ cells increases, which can be measured by flow cytometry (FIG. 18). The inhibition of each ELMO construct was determined in a dose depended manner and compared to C34 and T20 (FIG. 19).

5-helix [2] = target: T1, 5-helix; conditions: E. coli cell lysate, FLAG-tagged ligand, Ni-NTA plates
Experimental: ELISA: Separately, wt-GLUE, GLUE-Cpep, and the C-peptide were cloned into MCS1 of pETDuet-1 with FLAG tags using restriction enzymes NcoI and NotI. The 5-helix with a C-terminal His6× tag was cloned into MCS2 of pETDuet-1 using restriction enzymes NdeI and KpnI. Completed constructs were transformed into BL21s (DE3). Cells containing the co-expressed pair were inoculated and induced as described previously. Cells were spun down and resuspended in lysis buffer (20 mM Hepes pH 7.5, 100 mM NaCl), lysed by sonication, and spun down to remove cell debris. Cleared lysates were incubated on clear Ni-NTA coated plates for 1 hour at room temperature and washed 4× with 200 μL wash buffer (20 mM Hepes pH 7.5, 150 mM NaCl, 0.05% Tween-20, 0.01 mg/mL BSA). HRP-conjugated mouse anti-DDDDK antibody in LiCor Blocking Buffer was incubated for 1 hour at room temperature, followed by 4×200 μL washes. Colorimetry was developed using TMB-One substrate and absorbance was measured at 655 nm on a SynergyMx Microplate Reader.

5-helix [3] = target: T1, 5-helix; type: cell-based, HIV; design: N-terminal superpositive GFP tethered to the 5-helix was cloned into pETDuet-1; His6 (N); His6 (C); expressed in transfected cells; host or cells: E. coli BL21 (DE3), pETDuet-1; conditions: E. coli co-expressing N-spGFP-5-helix and C-spGFP fusion, flow cytometry
Experimental: Split-Superpositive GFP (split-spGFP) Reassembly Assay: Split-spGFP reassembly experiments were performed as previously described (Chapman, A. M.; 3 McNaughton, B. R. Molecular BioSystems 2012, 8, 2036). […] The completed construct was transformed into BL21s (DE3) and the cells were made electrocompetent via standard protocols. Separately, GLUE-Cpep and C-peptide tethered to the C-terminal fragment of superpositive GFP were independently cloned into pBAD using restriction enzymes NcoI and BsrGI. Constructs were electroporated into electrocompetent BL21s (DE3) containing the N-terminal superpositive GFP plasmid, pulsing at 1.8 kV in a 1 mm cuvette. Cells were allowed to recover at 37° C. for 1 hour, and then plated onto agar plates containing carbenicillin and kanamycin. Individual colonies were picked and passaged once, followed by induction at 37° C. with 1 mM IPTG and 0.2% arabinosewhen cultures reached an OD600 of 0.5. After 6 hours, cells were spun down and resuspended in 5 mL PBS. GFP fluorescence was measured by MoFlo Flow Cytometer.

[4] = Circular dichroism thermal denaturation at 222 nm; type: physicochemical; conditions: CD 222 nm, Tris buffer pH 7.4, 0 to 90 °C
Experimental: Circular Dichroism: Proteins were purified as described above. […] Wavelength data are the average of three scans from 250 nm to 200 nm in 1 nm steps at 25° C. Thermal denaturation experiments at 222 nm were run from 0 to 90° C. in two-degree steps at a two-degree/minute rate of increase with one-minute equilibration and data averaging at each temperature. Tm values were obtained from minima of the first derivative of θ versus 1/T plots.

[5] = room temperature (~25 °C)
Experimental: Protein Purification: Genes were cloned into pETDuet-1 using restriction enzymes BamHI and PacI, downstream of a His6× tag and transformed into BL21s (DE3). Cells were grown in 2.5 L LB cultures containing 50 μg/mL carbenicillin at 37° C. to OD600=0.5 and induced with 1 mM IPTG at 25° C. overnight. Cells were then collected by centrifugation, resuspended in Tris buffer (20 mM Tris pH 7.4, 100 mM NaCl, 10 mM (NH4)2SO4) and stored at −20° C. Frozen pellets were thawed and sonicated with 1 second pulses for 2 minutes. The lysate was cleared by centrifugation (15,000 rpm 30 min.) and the supernatant was mixed with 1 mL of Ni-NTA agarose resin for 1 hour at 4° C. The resin was collected by centrifugation (4,750 rpm, 10 min.). The resin was sequentially washed with 50 mL of buffer containing 20 mM imidazole, 10 mL buffer containing 50 mM imidazole, and 5 mL buffer containing 100 mM imidazole. […] The proteins were dialyzed against Tris buffer and analyzed for purity by SDS-PAGE shown below. Purified protein concentrations were quantified using Beer's Law at an absorbance of 280 nm, following standard practice (Grimsley, G. R.; Pace, C. N. Current Protocols in Protein Science (2003), 3.1.1-3.1.9).
All proteins were produced recombinantly in a pET vector with a His6× tag. […] Their expression was quantified in mg/L and compared to wtGLUE (FIG. 12A). […]

5-helix [6] = target: T1, 5-helix; conditions: 50 nM, 25% human serum, 37 °C, 4 or 12 h
Experimental: Colorimetry was developed using TMB-One substrate and absorbance was measured at 655 nm on a SynergyMx Microplate Reader.

C26-ELMO: shortened C-peptide grafted onto N-terminal helix of ELMO (SEQ ID NO:7) (WMEWDREINNYTSLIHSLIEESQNQQKQQRLNRLVE)
co-purification with His6-tagged 5-helix (5-helix [1]): could also be purified alongside 5-Helix-His6×
inhibition of HIV-1 infection at 250 nM (HIV-1 IIIB virus; 250 nM): some inhibition of infection

B1: wtELMO: wild-type form of ELMO (Engulfment and Cell Motility) PTB domain, PDB 2VSZ (protein)
chain: PILELKEKIQPEILELIKQQRLNRLVEGTCFRKLNARRRQDKFWYCRLSPNHKVLHYGDLEESPQGEVPHDSLQDKLPVADIKAVVTGKDCPHMKEKGALKQNKEVLELAFSILYDSNCQLNFIAPDKHEYCIWTDGLNALLGK
ELISA signal / affinity for 5-helix (5-helix [2]): strong ELISA signal
inhibition of HIV-1 infection (HIV-1 IIIB virus; dose dependent, compared to C34 and T20): no inhibitory effect

B2: GLUE-Cpep: helix-grafted GLUE PH domain displaying gp41 C-peptide on its C-terminal helix (grafted helix SEQ ID NO:3) (protein)
chain: MEYWHYVETTSSGQPLLREGEKDIAIDQSVGLYHGKSKILQRQRGRIFLTSQRIIYIDDAKPTQNSLGLELDDLAYVNYSSGFLTRSPALILFFKDPSSSTEFVQLSFRKSDGVWFSWATEIALYTILIHSLIEESQNQQEKNEQELL
interaction-dependent GFP reassembly fluorescence (5-helix [3]): highly fluorescent
Tm [4]: ~79 °C
solubility and folding in aqueous solution [5]: soluble and well-folded
co-purification with His6-tagged 5-helix (5-helix [1]): excellent selectivity
ELISA signal / affinity for 5-helix (5-helix [2]): slightly better affinity than the native C-peptide
ELISA signal for 5-helix after pre-incubation with human serum (5-helix [6]): remains functional
